Results reported in the supplement of paper PMC11908140.

B1: library; numbered along this chain (parent)
chain: MRKPRAAVGSGHRKQAASQEGRQKHAKNNSQAKPSACDGLARQPEEVVLQASVSSYHLFRDVAEVTAFRGSLLSWYDQEKRDLPWRRRAEDEMDLDRRAYAVWVSEVMLQQTQVATVINYYTGWMQKWPTLQDLASASLEEVNQLWAGLGYYSRGRRLQEGARKVVEELGGHMPRTAETLQQLLPGVGRYTAGAIASIAFGQATGVVDGNVARVLCRVRAIGADPSSTLVSQQLWGLAQQLVDPARPGDFNQAAMELGATVCTPQRPLCSQCPVESLCRARQRVEQEQLLASGSLSGSPDVEECAPNTGQCHLCLPPSEPWDQTLGVVNFPRKASRKPPREESSATCVLEQPGALGAQILLVQRPNSGLLAGLWEFPSVTWEPSEQLQRKALLQELQRWAGPLPATHLRHLGEVVHTFSHIKLTYQVYGLALEGQTPVTTVPPGARWLTQEEFHTAAVSTAMKKVFRVYQGQQPGTCMGSKRSQVSSPCSRKKPRMGQQVLDNFFRSHISTDAHSLNSAAQ

Variants of: B1
Assay: 8OG:A repair function score (normalized; synonymous = 0, nonsense = -1) (normalized log-likelihood score); higher = more repair activity (WT-like)
Conditions: with 8OG:A DNA repair reporter (GFP) in HEK-293 MUTYH KO cells
Method: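 Saturation mutagenesis (NNN codon scan) of the MUTYH cDNA (521-aa nuclear isoform NM_001048174.1 / NP_001041639), stably expressed under doxycycline induction in HEK-293 MUTYH knockout cells. Cells were co-transfected with an 8OG:A-bearing GFP repair reporter plus mCherry and sorted 72 h later into GFP+ and GFP− bins, three replicates per tile. The Rosace log2 enrichment (GFP+ vs GFP−) was converted per tile to a normalized function score with synonymous variants centered at 0 and nonsense variants (codons 1-471) at -1; low-abundance variants were removed.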

Compared with MRKPRAAVGSGHRKQAASQEGRQKHAKNNSQAKPSACDGLARQPEEVVLQASVSSYHLFRDVAEVTAFRGSLLSWYDQEKRDLPWRRRAEDEMDLDRRAYAVWVSEVMLQQTQVATCINYYTGWMQKWPTLQDLASASLEEVNQLWAGLGYYSRGRRLQEGARKVVEELGGHMPRTAETLQQLLPGVGRYTAGAIASIAFGQATGVVDGNVARVLCRVRAIGADPSSTLVSQQLWGLAQQLVDPARPGDFNQAAMELGATVCTPQRPLCSQCPVESLCRARQRVEQEQLLASGSLSGSPDVEECAPNTGQCHLCLPPSEPWDQTLGVVNFPRKASRKPPREESSATCVLEQPGALGAQILLVQRPNSGLLAGLWEFPSVTWEPSEQLQRKALLQELQRWAGPLPATHLRHLGEVVHTFSHIKLTYQVYGLALEGQTPVTTVPPGARWLTQEEFHTAAVSTAMKKVFRVYQGQQPGTCMGSKRSQVSSPCSRKKPRMGQQVLDNFFRSHISTDAHSLNSAAQ [V117C], MRKPRAAVGSGHRKQAASQEGRQKHAKNNSQAKPSACDGLARQPEEVVLQASVSSYHLFRDVAEVTAFRGSLLSWYDQEKRDLPWRRRAEDEMDLDRRAYAVWVSEVMLQQTQVATLINYYTGWMQKWPTLQDLASASLEEVNQLWAGLGYYSRGRRLQEGARKVVEELGGHMPRTAETLQQLLPGVGRYTAGAIASIAFGQATGVVDGNVARVLCRVRAIGADPSSTLVSQQLWGLAQQLVDPARPGDFNQAAMELGATVCTPQRPLCSQCPVESLCRARQRVEQEQLLASGSLSGSPDVEECAPNTGQCHLCLPPSEPWDQTLGVVNFPRKASRKPPREESSATCVLEQPGALGAQILLVQRPNSGLLAGLWEFPSVTWEPSEQLQRKALLQELQRWAGPLPATHLRHLGEVVHTFSHIKLTYQVYGLALEGQTPVTTVPPGARWLTQEEFHTAAVSTAMKKVFRVYQGQQPGTCMGSKRSQVSSPCSRKKPRMGQQVLDNFFRSHISTDAHSLNSAAQ [V117L] is lower in “8OG:A repair function score” value: 0.0468 for the first, -0.727 for the second.

Going from MRKPRAAVGSGHRKQAASQEGRQKHAKNNSQAKPSACDGLARQPEEVVLQASVSSYHLFRDVAEVTAFRGSLLSWYDQEKRDLPWRRRAEDEMDLDRRAYAVWVSEVMLQQTQVATKINYYTGWMQKWPTLQDLASASLEEVNQLWAGLGYYSRGRRLQEGARKVVEELGGHMPRTAETLQQLLPGVGRYTAGAIASIAFGQATGVVDGNVARVLCRVRAIGADPSSTLVSQQLWGLAQQLVDPARPGDFNQAAMELGATVCTPQRPLCSQCPVESLCRARQRVEQEQLLASGSLSGSPDVEECAPNTGQCHLCLPPSEPWDQTLGVVNFPRKASRKPPREESSATCVLEQPGALGAQILLVQRPNSGLLAGLWEFPSVTWEPSEQLQRKALLQELQRWAGPLPATHLRHLGEVVHTFSHIKLTYQVYGLALEGQTPVTTVPPGARWLTQEEFHTAAVSTAMKKVFRVYQGQQPGTCMGSKRSQVSSPCSRKKPRMGQQVLDNFFRSHISTDAHSLNSAAQ [V117K] to MRKPRAAVGSGHRKQAASQEGRQKHAKNNSQAKPSACDGLARQPEEVVLQASVSSYHLFRDVAEVTAFRGSLLSWYDQEKRDLPWRRRAEDEMDLDRRAYAVWVSEVMLQQTQVATEINYYTGWMQKWPTLQDLASASLEEVNQLWAGLGYYSRGRRLQEGARKVVEELGGHMPRTAETLQQLLPGVGRYTAGAIASIAFGQATGVVDGNVARVLCRVRAIGADPSSTLVSQQLWGLAQQLVDPARPGDFNQAAMELGATVCTPQRPLCSQCPVESLCRARQRVEQEQLLASGSLSGSPDVEECAPNTGQCHLCLPPSEPWDQTLGVVNFPRKASRKPPREESSATCVLEQPGALGAQILLVQRPNSGLLAGLWEFPSVTWEPSEQLQRKALLQELQRWAGPLPATHLRHLGEVVHTFSHIKLTYQVYGLALEGQTPVTTVPPGARWLTQEEFHTAAVSTAMKKVFRVYQGQQPGTCMGSKRSQVSSPCSRKKPRMGQQVLDNFFRSHISTDAHSLNSAAQ [V117E], the “8OG:A repair function score” value rises from -1.84 to -0.683.

First: MRKPRAAVGSGHRKQAASQEGRQKHAKNNSQAKPSACDGLARQPEEVVLQASVSSYHLFRDVAEVTAFRGSLLSWYDQEKRDLPWRRRAEDEMDLDRRAYAVWVSEVMLQQTQVATIINYYTGWMQKWPTLQDLASASLEEVNQLWAGLGYYSRGRRLQEGARKVVEELGGHMPRTAETLQQLLPGVGRYTAGAIASIAFGQATGVVDGNVARVLCRVRAIGADPSSTLVSQQLWGLAQQLVDPARPGDFNQAAMELGATVCTPQRPLCSQCPVESLCRARQRVEQEQLLASGSLSGSPDVEECAPNTGQCHLCLPPSEPWDQTLGVVNFPRKASRKPPREESSATCVLEQPGALGAQILLVQRPNSGLLAGLWEFPSVTWEPSEQLQRKALLQELQRWAGPLPATHLRHLGEVVHTFSHIKLTYQVYGLALEGQTPVTTVPPGARWLTQEEFHTAAVSTAMKKVFRVYQGQQPGTCMGSKRSQVSSPCSRKKPRMGQQVLDNFFRSHISTDAHSLNSAAQ [V117I]
Second: MRKPRAAVGSGHRKQAASQEGRQKHAKNNSQAKPSACDGLARQPEEVVLQASVSSYHLFRDVAEVTAFRGSLLSWYDQEKRDLPWRRRAEDEMDLDRRAYAVWVSEVMLQQTQVATMINYYTGWMQKWPTLQDLASASLEEVNQLWAGLGYYSRGRRLQEGARKVVEELGGHMPRTAETLQQLLPGVGRYTAGAIASIAFGQATGVVDGNVARVLCRVRAIGADPSSTLVSQQLWGLAQQLVDPARPGDFNQAAMELGATVCTPQRPLCSQCPVESLCRARQRVEQEQLLASGSLSGSPDVEECAPNTGQCHLCLPPSEPWDQTLGVVNFPRKASRKPPREESSATCVLEQPGALGAQILLVQRPNSGLLAGLWEFPSVTWEPSEQLQRKALLQELQRWAGPLPATHLRHLGEVVHTFSHIKLTYQVYGLALEGQTPVTTVPPGARWLTQEEFHTAAVSTAMKKVFRVYQGQQPGTCMGSKRSQVSSPCSRKKPRMGQQVLDNFFRSHISTDAHSLNSAAQ [V117M]
The “8OG:A repair function score” value of the first is higher: -0.166 for the first, -0.226 for the second.
